Results as given in the supplement of paper PMC10567573.

B1: AUP1 (parent)
chain: EGLLRFSSWPFSIQDVVQPLTLQV
B2: TRIM43 (parent)
chain: NRFRVEISFHFEVTNHNIRLFEDV

Variants of: B1
Experiment: protein stability index of a GFP-peptide fusion (GPS, HEK-293T) (PSI 1-6); higher = more stable
Details: c terminus: a fixed tail appended
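Also: lentivirally expressed fusions sorted by FACS into six bins by GFP to DsRed ratio, PSI derived from sequencing read proportions per bin multiplied by bin number.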

Protein stability index: each site, then its substitutions
R5: F 3.67; E 4.2; M 1.56; W 3.31; G 3.46; S 2.64; D 1.73; T 3.1; K 1.37
I13: F 3.26; D 1.86; W 1.29; H 1.94; T 2.84; C 1.56; K 2.53; E 1.22; R 2.4
G2: R 2.83; C 3.51; E 2.63; H 3.65
S8: G 2.57; E 2.23; C 2.25; A 2.17; T 2.62; F 3.08
P19: I 2.96; S 4.01; L 4.13
L3: D 1.83; C 4.98; T 4.12; P 2.44; E 2.41; V 2.22; A 1.76; K 2.2
W9: Y 3.88; P 1.28; A 3.6; Q 2; S 1.73; K 2.62; N 1.42; C 3.91; M 2.45; R 1.48; L 2.97; T 1.86; I 2.27; D 1.58; E 1.66
S12: H 2.25; G 2.04; P 2.66; M 3.22; D 1.95
P10: V 3.54; D 2.04; H 4; A 3.01; T 2.79; I 1.55; N 2.05; Y 3.85; M 2.26; G 1.88
L4: I 3.16; G 4; D 2.08; N 1.52; C 3.27; S 1.27; K 1.19
F11: T 2.46; P 2.46; M 2.22; G 1.05; D 1.04; S 3.39; N 1.85; R 1.7; Q 1.73; K 1.78
Q14: R 2.64; Y 3.36; T 1.79
S7: D 2.32; N 2.32; H 2.13; P 2.2; W 1.83; M 2.94; I 3.04; Y 3.72; R 1.33
E1: C 3.48; M 1.43; S 2.31; Y 2.78; P 1.82; T 1.8; R 4.19; I 1.02; N 2.31
F6: T 1.06; A 1.15; K 1.7; W 2.94; Q 1.65; H 1.34; V 1.73; L 2.09; E 1.36; N 1.4; S 1.24; P 2.07; D 1.46; Y 1.33
V17: H 3.15; E 1.38; N 2.03; C 3.22; D 1.37; K 2.35; F 2.53
V16: E 1.09; P 3.33; L 1.28; H 3.18; T 3.01; S 4.02; I 2.78; C 3.11; K 2.57; D 1.08
D15: M 2.12; K 1.48; L 2.63; Y 2.41; N 2.13; Q 3.59; I 1.3; E 3.9
Q18: E 2.6; A 2.25; H 2.53; Y 4.33

Variants of: B2
Experiment: as above
Details: c terminus: a fixed tail appended

Protein stability index: each site, then its substitutions
V13: E 4.46; M 2.35; H 2.26; D 1.93; P 4.3
T14: N 3.31; E 2.04; Y 3.83; L 2.29; H 3.49
L20: F 3.05; V 4.23; R 3.74; Q 3.28; Y 2.13
D23: I 3.66; M 2.12; Y 2.39; E 2.56; N 2.91; F 3.88; Q 2.92; G 3.13; K 1.95
N17: F 2.85; D 4.85; I 1.37; Q 3.45; C 3.65; R 2.53; K 2.61
V24: K 2.85; Q 3.09; T 2.44; L 1.95; H 4.23; I 2.14; F 2.43
S8: G 2.38; L 3.72; R 2.43; C 2.02; M 2.39; P 2.36
I18: T 2.09; V 2.97; E 2.9; G 2.43; C 4.6; Y 3.23; K 1.47; Q 3.52; D 1.3; S 2.35; P 3.07; H 3.18; W 3.01
R4: G 3.21; K 2.96; I 3.43; E 3.4; T 2.08; N 2.75; L 2.88; C 2.91; A 3.36
H16: C 3.06; S 2.05; R 4.01; Y 2.9; V 1.07; L 1.82; A 3.14
I7: D 2.44; G 2.43; N 2.06; F 3.57; T 1.68; E 1.91; R 2.85; P 1.81; Y 3.41; K 2.12
F3: A 3.07; N 3.43; T 2.7; C 2.54; M 2.92; K 2.36; E 1.53; D 3.13; V 2.2; I 2.35
R2: Y 2.89
F9: N 2.22; E 1.95; G 2; T 2.01; K 1.85; D 2.27; R 1.76; A 2.87; S 1.91; Q 1.28; P 2.08; H 1.09
E22: Q 2.31; K 2.02; D 2.4; T 2.66; P 2.14; H 3.18; L 2.29
N15: L 3.22; G 2.28; D 2.5; E 2.92; P 3.72; C 3.41; T 1.49; Y 3.23; F 3.62; S 2.18; W 3.34; V 2.13; M 2.49
F21: E 2.31; Q 3.09; L 2.29; W 2; Y 3.98; P 1.76; R 1.88; C 2.67
V5: S 2.08; T 3.37; W 2.53; Q 1.79; P 2.8; N 2.11; F 2.78; G 2.86; K 3.27; E 1.46; D 2.08; A 3.44; R 1.5
E12: L 2.91; Y 2.51; A 2.58; W 2.64; N 1.39; I 1.68
R19: I 2.06; H 3.79; D 3.62; Q 2.14; P 1.69; Y 3.54; S 3.39
E6: T 4.38; H 4.48; S 3.18; K 3.25; D 2.34; L 2.03; A 2.86; P 2.27; G 2.02; M 2.64; V 3.86
F11: Q 2.38; I 2.83; S 2.74; K 1.46; D 1.27; T 2.44; P 1.58; E 1.03
H10: P 3.64; E 2.98; Q 4.08; S 3.4; N 2.63
